According to patent US20140037621A1 (JN BIOSCIENCES, published 2014):

What was measured:
[1] = target: death receptor 4 (DR4) on the cell surface (Ramos, Colo-205, RPMI 8226 cells) (human, UniProt O00220 24-468); experiment: cell-based or functional assay
[2] = target: T1, CD30 on the surface of Karpas 299 cells (human, UniProt P28908 19-595); experiment: cell-based or functional assay
T1 sequence (looked up): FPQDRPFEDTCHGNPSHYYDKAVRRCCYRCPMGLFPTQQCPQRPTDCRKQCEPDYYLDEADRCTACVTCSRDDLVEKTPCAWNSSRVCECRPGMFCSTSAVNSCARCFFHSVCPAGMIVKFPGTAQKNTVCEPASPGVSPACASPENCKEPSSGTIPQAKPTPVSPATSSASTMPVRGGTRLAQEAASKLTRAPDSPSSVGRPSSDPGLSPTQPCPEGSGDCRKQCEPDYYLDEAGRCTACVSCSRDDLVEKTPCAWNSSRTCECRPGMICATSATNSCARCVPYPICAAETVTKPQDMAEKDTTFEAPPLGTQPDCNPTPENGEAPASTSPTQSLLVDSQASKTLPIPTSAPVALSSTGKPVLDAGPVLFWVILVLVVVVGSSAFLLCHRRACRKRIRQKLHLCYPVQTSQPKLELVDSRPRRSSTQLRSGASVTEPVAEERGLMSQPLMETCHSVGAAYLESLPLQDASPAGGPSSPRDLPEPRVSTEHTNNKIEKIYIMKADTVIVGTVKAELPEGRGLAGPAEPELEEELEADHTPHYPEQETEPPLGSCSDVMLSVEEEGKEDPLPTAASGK

Row | growth level of Karpas 299 cells (percent cell growth, WST-8, 2 µg/ml antibody, 5 days) [2] | Binder | cell viability of Ramos cells at 100 ng/ml of antibody (alamarBlue) [1] | cell killing of Ramos cells at 100 ng/ml of antibody (alamarBlue) [1] | viability of Colo-205 cells at 100 ng/ml of antibody (alamarBlue) [1]
1 | – | HuYON007.V279-Fcµtp monomer (antibody, human IgG1, lambda) heavy: not shown light: QTVVTQEPSFSVSPGGTVTLTCRSSSGAVTTSNFANWVQQTPGQAPRGLIGGTNNRAPGVPDRFSGSILGNKAALTITGAQADDESDYYCALWYSNHWVFGGGTKLTVLGQPKAAPSVTLFPPSSEELQANKATLVCLISDFYPGAVTVAWKADSSPVKAGVETTTPSKQSNNKYAASSYLSLTPEQWKSHRSYSCQVTHEGSTVEKTVAPTECS | 80% | – | –
2 | – | HuYON007.L309-Fcµtp monomer (antibody, human IgG1, lambda) heavy: not shown light: QTVVTQEPSFSVSPGGTVTLTCRSSSGAVTTSNFANWVQQTPGQAPRGLIGGTNNRAPGVPDRFSGSILGNKAALTITGAQADDESDYYCALWYSNHWVFGGGTKLTVLGQPKAAPSVTLFPPSSEELQANKATLVCLISDFYPGAVTVAWKADSSPVKAGVETTTPSKQSNNKYAASSYLSLTPEQWKSHRSYSCQVTHEGSTVEKTVAPTECS | 92% | – | –
3 | – | HuYON007.H285-Fcµtp multimer (antibody, human IgG1, lambda) heavy: not shown light: QTVVTQEPSFSVSPGGTVTLTCRSSSGAVTTSNFANWVQQTPGQAPRGLIGGTNNRAPGVPDRFSGSILGNKAALTITGAQADDESDYYCALWYSNHWVFGGGTKLTVLGQPKAAPSVTLFPPSSEELQANKATLVCLISDFYPGAVTVAWKADSSPVKAGVETTTPSKQSNNKYAASSYLSLTPEQWKSHRSYSCQVTHEGSTVEKTVAPTECS | – | ~100% | < 35%
4 | – | HuYON007.A287-Fcµtp monomer (antibody, human IgG1, lambda) heavy: not shown light: QTVVTQEPSFSVSPGGTVTLTCRSSSGAVTTSNFANWVQQTPGQAPRGLIGGTNNRAPGVPDRFSGSILGNKAALTITGAQADDESDYYCALWYSNHWVFGGGTKLTVLGQPKAAPSVTLFPPSSEELQANKATLVCLISDFYPGAVTVAWKADSSPVKAGVETTTPSKQSNNKYAASSYLSLTPEQWKSHRSYSCQVTHEGSTVEKTVAPTECS | 83% | – | –
5 | – | HuYON007.L309-Fcµtp multimer (antibody, human IgG1, lambda) heavy: not shown light: QTVVTQEPSFSVSPGGTVTLTCRSSSGAVTTSNFANWVQQTPGQAPRGLIGGTNNRAPGVPDRFSGSILGNKAALTITGAQADDESDYYCALWYSNHWVFGGGTKLTVLGQPKAAPSVTLFPPSSEELQANKATLVCLISDFYPGAVTVAWKADSSPVKAGVETTTPSKQSNNKYAASSYLSLTPEQWKSHRSYSCQVTHEGSTVEKTVAPTECS | – | ~100% | < 35%
6 | – | HuYON007.V279-Fcµtp multimer (antibody, human IgG1, lambda) heavy: not shown light: QTVVTQEPSFSVSPGGTVTLTCRSSSGAVTTSNFANWVQQTPGQAPRGLIGGTNNRAPGVPDRFSGSILGNKAALTITGAQADDESDYYCALWYSNHWVFGGGTKLTVLGQPKAAPSVTLFPPSSEELQANKATLVCLISDFYPGAVTVAWKADSSPVKAGVETTTPSKQSNNKYAASSYLSLTPEQWKSHRSYSCQVTHEGSTVEKTVAPTECS | – | ~100% | < 35%
7 | – | HuYON007.A287-Fcµtp multimer (antibody, human IgG1, lambda) heavy: not shown light: QTVVTQEPSFSVSPGGTVTLTCRSSSGAVTTSNFANWVQQTPGQAPRGLIGGTNNRAPGVPDRFSGSILGNKAALTITGAQADDESDYYCALWYSNHWVFGGGTKLTVLGQPKAAPSVTLFPPSSEELQANKATLVCLISDFYPGAVTVAWKADSSPVKAGVETTTPSKQSNNKYAASSYLSLTPEQWKSHRSYSCQVTHEGSTVEKTVAPTECS | – | ~100% | < 35%
8 | – | HuYON007.H285-Fcµtp monomer (antibody, human IgG1, lambda) heavy: not shown light: QTVVTQEPSFSVSPGGTVTLTCRSSSGAVTTSNFANWVQQTPGQAPRGLIGGTNNRAPGVPDRFSGSILGNKAALTITGAQADDESDYYCALWYSNHWVFGGGTKLTVLGQPKAAPSVTLFPPSSEELQANKATLVCLISDFYPGAVTVAWKADSSPVKAGVETTTPSKQSNNKYAASSYLSLTPEQWKSHRSYSCQVTHEGSTVEKTVAPTECS | 91% | – | –
9 | 106% | ChSan11 IgG1/kappa antibody (mouse-human chimeric anti-human CD30) (antibody) heavy: not shown VL: DIVLTQSPASLAVSLGQRATISCRASESVEYYGTGLMQWYQQKPGQPPKLLIYSASNVESGVPARFTGSGSGTDFSLNIHPVEEDDIAMYFCQQSRKVPWTFGGGTKLEIKR | – | – | –
10 | 43% | ChSan11.A287-Fcµtp multimer (antibody, human IgG1) heavy: not shown VL: DIVLTQSPASLAVSLGQRATISCRASESVEYYGTGLMQWYQQKPGQPPKLLIYSASNVESGVPARFTGSGSGTDFSLNIHPVEEDDIAMYFCQQSRKVPWTFGGGTKLEIKR | – | – | –
11 | 38% | ChSan11.L309-Fcµtp multimer (antibody, human IgG1) heavy: not shown VL: DIVLTQSPASLAVSLGQRATISCRASESVEYYGTGLMQWYQQKPGQPPKLLIYSASNVESGVPARFTGSGSGTDFSLNIHPVEEDDIAMYFCQQSRKVPWTFGGGTKLEIKR | – | – | –
12 | 39% | ChSan11.H285-Fcµtp multimer (antibody, human IgG1) heavy: not shown VL: DIVLTQSPASLAVSLGQRATISCRASESVEYYGTGLMQWYQQKPGQPPKLLIYSASNVESGVPARFTGSGSGTDFSLNIHPVEEDDIAMYFCQQSRKVPWTFGGGTKLEIKR | – | – | –
13 | 41% | ChSan11.V279-Fcµtp multimer (antibody, human IgG1) heavy: not shown VL: DIVLTQSPASLAVSLGQRATISCRASESVEYYGTGLMQWYQQKPGQPPKLLIYSASNVESGVPARFTGSGSGTDFSLNIHPVEEDDIAMYFCQQSRKVPWTFGGGTKLEIKR | – | – | –
